T1: human EphA7 (Homo sapiens, UniProt Q15375)
T1 construct: a protein of the extracellular region of each human Eph receptor fused with the SEAP protein and the His tag; made in house; host or cells: Expi293F cells (culture supernatant)
T1 sequence (Q15375 28-555 limits assumed): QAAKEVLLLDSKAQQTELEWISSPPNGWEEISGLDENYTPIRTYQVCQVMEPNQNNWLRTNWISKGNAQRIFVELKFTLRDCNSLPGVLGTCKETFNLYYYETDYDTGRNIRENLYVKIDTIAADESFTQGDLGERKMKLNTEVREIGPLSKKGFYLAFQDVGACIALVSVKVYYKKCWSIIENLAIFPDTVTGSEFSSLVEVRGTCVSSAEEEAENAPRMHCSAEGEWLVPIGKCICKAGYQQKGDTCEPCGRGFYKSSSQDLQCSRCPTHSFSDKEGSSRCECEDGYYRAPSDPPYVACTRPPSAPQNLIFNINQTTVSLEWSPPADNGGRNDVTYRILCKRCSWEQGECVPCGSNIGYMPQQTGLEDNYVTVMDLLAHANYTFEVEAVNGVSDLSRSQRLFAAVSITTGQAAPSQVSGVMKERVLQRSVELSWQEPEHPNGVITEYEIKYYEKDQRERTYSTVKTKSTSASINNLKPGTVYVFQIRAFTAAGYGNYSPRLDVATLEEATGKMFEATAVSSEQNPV

T2: human EphB4 (Homo sapiens, UniProt P54760)
T2 construct: a protein of the extracellular region of each human Eph receptor fused with the SEAP protein and the His tag; made in house; host or cells: Expi293F cells
T2 sequence (P54760 16-539 limits assumed): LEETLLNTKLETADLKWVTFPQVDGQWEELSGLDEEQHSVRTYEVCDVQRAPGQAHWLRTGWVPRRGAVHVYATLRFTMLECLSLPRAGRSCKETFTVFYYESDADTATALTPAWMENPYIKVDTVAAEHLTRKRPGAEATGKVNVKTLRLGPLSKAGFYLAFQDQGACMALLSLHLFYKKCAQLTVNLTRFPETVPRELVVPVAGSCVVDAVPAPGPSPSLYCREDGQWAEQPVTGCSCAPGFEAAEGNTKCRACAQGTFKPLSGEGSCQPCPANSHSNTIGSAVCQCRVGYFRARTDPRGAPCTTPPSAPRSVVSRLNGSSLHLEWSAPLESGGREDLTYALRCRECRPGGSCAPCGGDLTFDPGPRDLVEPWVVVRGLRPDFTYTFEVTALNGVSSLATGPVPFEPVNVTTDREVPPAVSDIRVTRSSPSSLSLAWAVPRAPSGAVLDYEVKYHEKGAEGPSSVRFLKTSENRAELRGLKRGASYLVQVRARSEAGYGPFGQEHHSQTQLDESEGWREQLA

T3: human EphA8 (Homo sapiens, UniProt P29322)
T3 construct: a protein of the extracellular region of each human Eph receptor fused with the SEAP protein and the His tag; made in house; host or cells: Expi293F cells (culture supernatant)
T3 sequence (P29322 28-542 limits assumed): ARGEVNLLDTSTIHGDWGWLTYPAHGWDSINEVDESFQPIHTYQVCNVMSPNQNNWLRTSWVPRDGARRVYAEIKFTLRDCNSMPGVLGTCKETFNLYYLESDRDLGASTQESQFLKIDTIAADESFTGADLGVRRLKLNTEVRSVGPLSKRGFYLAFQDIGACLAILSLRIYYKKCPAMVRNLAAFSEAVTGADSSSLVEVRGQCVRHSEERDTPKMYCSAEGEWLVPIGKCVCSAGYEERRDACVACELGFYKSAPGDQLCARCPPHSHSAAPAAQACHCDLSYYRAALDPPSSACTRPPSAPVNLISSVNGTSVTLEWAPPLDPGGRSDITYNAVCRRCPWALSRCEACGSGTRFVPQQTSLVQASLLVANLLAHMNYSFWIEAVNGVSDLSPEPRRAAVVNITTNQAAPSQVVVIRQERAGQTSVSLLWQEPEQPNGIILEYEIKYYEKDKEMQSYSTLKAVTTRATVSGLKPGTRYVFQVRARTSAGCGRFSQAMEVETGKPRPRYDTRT


Legend:
Experiment in all cases: Selectivity ELISA of humanized antibodies for human Eph receptor
Assay type in all cases: binding
Details in all cases: coated protein 1 nM
human EphA7 = target: T1, human EphA7
How it was run: (§1)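 His-tagged SEAP fusions of each human Eph receptor extracellular region, from Expi293F supernatants, were captured at 1 nM on anti-His-coated wells. Humanized antibody was bound 1 h at room temperature, then detected with HRP […] IgG. TMB development was acid-stopped and read at 450 nm.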

human EphB4 = target: T2, human EphB4
How it was run: as §1

SEAP-His = SEAP-His (Homo sapiens, UniProt P05187)
How it was run: as §1

human EphA8 = target: T3, human EphA8
How it was run: as §1

Chain of SEAP-His (P05187 23-511 limits assumed): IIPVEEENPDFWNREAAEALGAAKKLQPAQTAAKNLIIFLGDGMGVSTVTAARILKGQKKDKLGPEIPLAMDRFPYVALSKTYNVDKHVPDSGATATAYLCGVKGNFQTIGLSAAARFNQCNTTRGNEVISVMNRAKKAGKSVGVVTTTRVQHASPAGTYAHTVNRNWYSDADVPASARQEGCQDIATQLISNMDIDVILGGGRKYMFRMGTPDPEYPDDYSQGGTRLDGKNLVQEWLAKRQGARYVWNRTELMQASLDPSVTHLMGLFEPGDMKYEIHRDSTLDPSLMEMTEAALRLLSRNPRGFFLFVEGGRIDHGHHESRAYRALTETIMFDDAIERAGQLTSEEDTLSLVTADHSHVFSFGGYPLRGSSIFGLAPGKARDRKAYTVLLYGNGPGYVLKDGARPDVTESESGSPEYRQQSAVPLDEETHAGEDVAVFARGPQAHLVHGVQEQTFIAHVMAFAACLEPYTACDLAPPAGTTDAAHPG

Row | Molecule | hEphA7-SEAP-: absorbance at 450 nm, percentage with respect to hEphA4-SEAP-His as 100% (human EphA7) [%] | hEphB4-SEAP-: absorbance at 450 nm, percentage with respect to hEphA4-SEAP-His as 100% (human EphB4) [%] | SEAP-His: absorbance at 450 nm, percentage with respect to hEphA4-SEAP-His as 100% (SEAP-His) [%] | hEphA8-SEAP-: absorbance at 450 nm, percentage with respect to hEphA4-SEAP-His as 100% (human EphA8) [%]
1 | 156 (antibody, V domains shown, synthetic humanized antibody heavy chain variable region sequence; synthetic humanized antibody light chain variable region sequence) VH: QIQLVQSGSELKKPGASVKVSCKASGYTFTDYSMHWVRQAPGQGLKWMGWINTETGEPTYAQGFTGRFVFSLDTSVSTAYLQISSLKAEDTAVYYCARIPLYYYGSRYWYFDVWGQGTTVTVSS VL: DIQMTQSPSSLSASVGDRVTITCRASENIYRNLAWYQQKPGKAPQLLLYAATNLADGVPSRFSGSGSGTDYTLTISSLQPEDFATYYCQHFWGTPWTFGQGTKVEIK | 5.6 | 5.6 | 5.4 | 5.5
2 | 136 (antibody, V domains shown, synthetic humanized antibody heavy chain variable region sequence; synthetic humanized antibody light chain variable region sequence) VH: QVQLVQSGSELKKPGASVKVSCKASGYTFTDYSMHWVRQAPGQGLKWMGWINTETGEPTYADDFKGRFVFSLDTSVSTAYLQISSLKAEDTAVYYCARIPLYYYGSRYWYFDVWGQGTTVTVSS VL: EIVMTQSPATLSVSPGERATLSCRASENIYRNLAWYQQKPGQSPRLLIYAATNLADGIPARFSGSGSGTEYTLTISSLQSEDFAVYYCQHFWGTPWTFGQGTKVEIK | 5.4 | 5.2 | 5.2 | 5.4
